Measurements: patent US20250197493A1

Key:
[1] = target: cell membrane-expressed human LAG-3 (human) (UniProt P18627); assay: flow cytometry, SEB-activated human PBMCs, CD4 T cells, percent of cells bound (isotype control)
[2] = target: cell membrane-expressed cynomolgus LAG-3 (cynomolgus monkey); assay: flow cytometry, SEB-activated cynomolgus PBMCs, CD4 T cells, percent of cells bound (isotype control)
[3] = target: cell membrane-expressed human LAG-3 (human) (UniProt P18627); assay: flow cytometry, SEB-activated human PBMCs, CD8 T cells, percent of cells bound (isotype control)
[4] = target: cell membrane-expressed cynomolgus LAG-3 (cynomolgus monkey); assay: flow cytometry, SEB-activated cynomolgus PBMCs, CD8 T cells, percent of cells bound (isotype control)

Sequence of cell membrane-expressed human LAG-3 (human) (P18627 23-525 limits assumed): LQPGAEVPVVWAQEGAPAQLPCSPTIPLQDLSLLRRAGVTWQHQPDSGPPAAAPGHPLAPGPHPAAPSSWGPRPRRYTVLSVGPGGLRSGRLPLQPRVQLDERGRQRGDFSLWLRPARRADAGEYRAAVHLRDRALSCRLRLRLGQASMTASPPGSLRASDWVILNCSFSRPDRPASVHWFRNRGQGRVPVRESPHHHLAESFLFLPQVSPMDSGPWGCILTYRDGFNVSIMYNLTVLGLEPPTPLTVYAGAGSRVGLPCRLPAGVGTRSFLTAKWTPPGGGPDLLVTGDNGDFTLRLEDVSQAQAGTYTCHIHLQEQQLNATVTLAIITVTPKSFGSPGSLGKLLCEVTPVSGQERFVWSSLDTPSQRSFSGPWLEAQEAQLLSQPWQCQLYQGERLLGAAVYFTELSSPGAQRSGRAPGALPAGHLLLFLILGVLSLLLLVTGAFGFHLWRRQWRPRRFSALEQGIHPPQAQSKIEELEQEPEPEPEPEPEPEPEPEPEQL

Substance: Isotype hG1 (antibody)
- EC50 [1]: 0.39 µg/mL
- EC50 [2]: 2450 µg/mL
- EC50 [3]: 0.676 µg/mL
- EC50 [4]: 8.66 µg/mL
